According to patent US20210057047A1, “IN-SILICO METHOD FOR DESIGNING A (D)-POLYPEPTIDE LIGAND” (THE GOVERNING COUNCIL OF THE UNIVERSITY OF TORONTO, priority 2018, published 2021):
Where two headings read alike, the source gives them in different places. Square brackets hold non-standard residues; d marks the D form. Ends that are not written are not given here. Peptide text beside a SMILES is read from it.

Tests used:
Proteinase K (ProtK) = biological target: T1, Proteinase K (ProtK) (Parengyodontium album, UniProt P06873); test: in vitro; format: in vitro ADME
T1 construct: purchased Bioshop
T1 sequence (P06873 106-384): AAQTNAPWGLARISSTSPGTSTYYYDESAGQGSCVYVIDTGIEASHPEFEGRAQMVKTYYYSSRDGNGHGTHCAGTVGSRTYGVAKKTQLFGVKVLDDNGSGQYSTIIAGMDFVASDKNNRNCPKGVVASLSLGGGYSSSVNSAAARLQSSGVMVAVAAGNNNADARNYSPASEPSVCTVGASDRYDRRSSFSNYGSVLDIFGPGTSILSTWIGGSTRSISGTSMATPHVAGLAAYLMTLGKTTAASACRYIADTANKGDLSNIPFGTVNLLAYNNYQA
Experimental: Stocks of 20 μM peptide in 200 μL total volume (10 mM Tris-base, 10 mM NaCl, pH 7.4) were supplemented with 5 μM CaCl2) and 30 uL removed for the untreated T0 sample. Proteinase K (ProtK, Bioshop) was then added to a final concentration of 100 μg/mL. Samples were incubated at 37° C. and 30 μL removed after each time point and protease activity blocked by the addition of 10 mM PMSF (200 mM stock dissolved in isopropanol). Protease inactivated samples were frozen at −20° C. until further use. Digestions were repeated three times. Frozen samples were supplemented with 8 μL sample loading buffer (4× NuPAGE, ThermoFisher Scientific), boiled ([…]) for 10 minutes, and centrifuged (12 000 rpm, 10 min) prior to loading the gel (12% NuPAGE Bis-Tris (ThermoFisher Scientific) with MES running buffer). Gels were run at 200 V for […] and stained using Coomassie Brilliant Blue dye. Densitometry of bands was determined using ImageJ software (40) with back ground subtraction. All samples were normalized to their respective untreated sample (T0).

[1] = biological target: T2, parathyroid receptor (PTH1R) (Homo sapiens, UniProt Q03431); test: CRE-luciferase reporter assay in HEK293 cells stably expressing PTH1R; format: cell-based
T2 construct: expressed in transfected cells; host or cells: HEK293
T2 sequence (Q03431 27-593): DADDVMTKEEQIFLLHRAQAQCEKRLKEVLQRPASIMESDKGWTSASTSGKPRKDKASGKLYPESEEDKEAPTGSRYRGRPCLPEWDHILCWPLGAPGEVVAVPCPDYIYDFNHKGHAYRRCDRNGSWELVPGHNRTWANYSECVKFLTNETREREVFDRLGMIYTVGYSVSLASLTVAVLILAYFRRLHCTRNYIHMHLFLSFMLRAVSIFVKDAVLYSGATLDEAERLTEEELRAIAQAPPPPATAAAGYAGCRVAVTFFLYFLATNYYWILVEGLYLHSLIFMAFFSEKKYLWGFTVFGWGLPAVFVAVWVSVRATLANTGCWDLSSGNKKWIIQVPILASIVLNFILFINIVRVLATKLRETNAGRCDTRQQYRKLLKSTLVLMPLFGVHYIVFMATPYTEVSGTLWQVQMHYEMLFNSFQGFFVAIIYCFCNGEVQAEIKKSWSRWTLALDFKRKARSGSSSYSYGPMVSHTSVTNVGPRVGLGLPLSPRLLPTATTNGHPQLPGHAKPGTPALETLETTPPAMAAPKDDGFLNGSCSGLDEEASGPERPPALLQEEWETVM
Experimental: This activates protein kinase A (PKA) to phosphorylate and activate cAMP response element-binding protein (CREB). […] All of the (L)-PTH is degraded in under 1 hr, while more than 85% of the (D)-analog is still detectable at 6 hours.
(a) (L)-PTH structure and sequence with hotspots highlighted in grey and junctions in black. (b) (D)-PDB match structures and sequences. (c) Final (D)-PTH construction from match sequences and RI (d) HEK293 cells stably expressing PTH1R and CRE-luciferase were stimulated with different concentrations of (L)-, (D)-PTH peptides and Forskolin. Luciferase activity was measured. The experiments were performed in triplicate. (e) Sample gel images of (L)- and (D)-PTH peptides treated with Proteinase K (ProtK) over 5 hours. Gels were stained with Coomassie Brilliant Blue dye and band densitometry calculated using ImageJ (40) with background subtraction. (f) Quantification of remaining peptide post ProtK treatment in […] intervals. Intensity of peptide bands were normalized to the intensity of the untreated peptide (T0) and converted to a percentage relative to T0. […] Error bars are reporting standard error. Data represent the average of 3 independent experiments.

[2] = FDA approved peptide drugs, Table 1; cited from earlier work
pCDNA3.1 HEK293 cells = test: CRE-luciferase reporter assay in control pCDNA3.1 HEK293 cells; format: cell-based; conditions: pCDNA3.1 HEK293 cells without GLP1 receptor
GLP1 receptor (GLP1R) = GLP1 receptor (GLP1R) (human, UniProt P43220 24-463); test: cell-based or functional assay

(L)-PTH: native parathyroid hormone, residues 1-34
degradation by ProtK (in words) (Proteinase K (ProtK)): rapid degradation | time until all peptide is degraded (Proteinase K (ProtK)): under 1 hr

CC[C@@H](C)[C@@H](NC(=O)[C@@H](CCC(=O)O)NC(=O)[C@@H](CCCNC(=N)N)NC(=O)[C@@H](CCSC)NC(=O)[C@@H](CC(C)C)NC(=O)[C@@H](CC(=O)O)NC(=O)CNC(=O)[C@@H](CCCCN)NC(=O)[C@@H](Cc1c[nH]cn1)NC(=O)[C@@H](CC(N)=O)NC(=O)[C@@H](CCCNC(=N)N)NC(=O)[C@@H](Cc1c[nH]c2ccccc12)NC(=O)[C@@H](CCC(=O)O)NC(=O)[C@H]1CCCN1C(=O)[C@@H](CC(C)C)NC(=O)[C@@H](Cc1ccc(O)cc1)NC(=O)[C@@H](CCSC)NC(=O)[C@@H](CC(C)C)NC(=O)[C@@H](CC(C)C)NC(=O)[C@@H](CCSC)NC(=O)CNC(=O)[C@H](NC(=O)[C@@H](CO)NC(=O)[C@@H](CC(=O)O)NC(=O)[C@@H](C)NC(=O)[C@H](NC(=O)[C@@H](C)NC(=O)[C@@H](CC(C)C)NC(=O)CNC(=O)[C@@H](C)N)C(C)C)C(C)C)C(=O)N[C@H](CCCNC(=N)N)C(=O)N[C@H](CO)C(=O)N[C@H](CCCNC(=N)N)C(=O)N[C@H](CCCCN)C(=O)N[C@@H](C(=O)N[C@H](CO)C(=O)O)C(C)C [(D)-PTH] (H-[dA]G[dL][dA][dV][dA][dD][dS][dV]G[dM][dL][dL][dM][dY][dL][dP][dE][dW][dR][dN][dH][dK]G[dD][dL][dM][dR][dE][dI][dR][dS][dR][dK][dV][dS]-OH; N-terminus and C-terminus assumed)
degradation by ProtK (in words) (Proteinase K (ProtK)): persists after 5 hours | activation of PTH1R, potency and efficacy (in words) [1]: potency and efficacy comparable to (L)-PTH and Forskolin

Sermorelin
t½ [2]: 0.2 h

(L)-GLP-2: native GLP-2, gastrointestinal peptide
time until all peptide is degraded (Proteinase K (ProtK); exposure to ProtK, 37° C.): about 1 hr | degradation by ProtK (in words) (Proteinase K (ProtK); treatment with ProtK over 5 hours): rapid degradation

CC[C@H](C)[C@H](NC(=O)[C@H](Cc1ccccc1)NC(=O)[C@H](CCC(=O)O)NC(=O)[C@H](CCCCN)NC(=O)[C@H](C)NC(=O)[C@H](C)NC(=O)[C@H](CCC(N)=O)NC(=O)CNC(=O)[C@H](CCC(=O)O)NC(=O)[C@H](CC(C)C)NC(=O)[C@H](Cc1ccc(O)cc1)NC(=O)[C@H](CO)NC(=O)[C@H](CO)NC(=O)[C@@H](NC(=O)[C@H](CC(=O)O)NC(=O)[C@H](CO)NC(=O)[C@@H](NC(=O)[C@H](Cc1ccccc1)NC(=O)[C@@H](NC(=O)CNC(=O)[C@H](CCC(=O)O)NC(=O)[C@H](C)NC(=O)[C@@H](N)Cc1c[nH]cn1)[C@@H](C)O)[C@@H](C)O)C(C)C)C(=O)N[C@@H](C)C(=O)N[C@@H](Cc1c[nH]c2ccccc12)C(=O)N[C@@H](CC(C)C)C(=O)N[C@H](C(=O)N[C@@H](CCCCN)C(=O)NCC(=O)N[C@@H](CCCNC(=N)N)C(=O)O)C(C)C [(L)-GLP1]
luciferase expression (in words) (pCDNA3.1 HEK293 cells): inactive

Thymosin (Ac-SDAAVDTSSEITTKDLKEKKEVVEEAEN; UniProt P06454 2-29, looked up) [FDA approved peptide drug, hepatitis, cancer]
t½ [2]: 2 h

CC[C@H](C)[C@H](NC(=O)[C@H](Cc1ccccc1)NC(=O)[C@H](CC(=O)O)NC(=O)[C@H](CCCNC(=N)N)NC(=O)[C@H](C)NC(=O)[C@H](C)NC(=O)[C@H](CC(C)C)NC(=O)[C@H](CC(N)=O)NC(=O)[C@H](CC(=O)O)NC(=O)[C@H](CC(C)C)NC(=O)[C@@H](NC(=O)[C@@H](NC(=O)[C@H](CC(N)=O)NC(=O)[C@H](CCSC)NC(=O)[C@H](CCC(=O)O)NC(=O)[C@H](CC(=O)O)NC(=O)[C@H](CO)NC(=O)[C@H](Cc1ccccc1)NC(=O)[C@H](CO)NC(=O)CNC(=O)[C@H](CC(=O)O)NC(=O)CNC(=O)[C@@H](N)Cc1c[nH]cn1)[C@@H](C)O)[C@@H](C)CC)C(=O)N[C@@H](CC(N)=O)C(=O)N[C@@H](Cc1c[nH]c2ccccc12)C(=O)N[C@@H](CC(C)C)C(=O)N[C@H](C(=O)N[C@@H](CCC(N)=O)C(=O)N[C@H](C(=O)N[C@@H](CCCCN)C(=O)N[C@H](C(=O)N[C@H](C(=O)N[C@@H](CC(=O)O)C(=O)O)[C@@H](C)O)[C@@H](C)CC)[C@@H](C)O)[C@@H](C)CC [Teduglutide]
t½ [2]: 1.33 h

CC(C)C[C@H](NC(=O)[C@H](CCCCN)NC(=O)CNC(=O)[C@H](CC(C)C)NC(=O)[C@@H](NC(=O)[C@@H]1CSSC[C@H](N)C(=O)N[C@@H](CO)C(=O)N[C@@H](CC(N)=O)C(=O)N[C@@H](CC(C)C)C(=O)N[C@@H](CO)C(=O)N[C@@H]([C@@H](C)O)C(=O)N1)C(C)C)C(=O)N[C@@H](CO)C(=O)N[C@@H](CCC(N)=O)C(=O)N[C@@H](CCC(=O)O)C(=O)N[C@@H](CC(C)C)C(=O)N[C@@H](Cc1c[nH]cn1)C(=O)N[C@@H](CCCCN)C(=O)N[C@@H](CC(C)C)C(=O)N[C@@H](CCC(N)=O)C(=O)N[C@H](C(=O)N[C@@H](Cc1ccc(O)cc1)C(=O)N1CCC[C@H]1C(=O)N[C@@H](CCCNC(=N)N)C(=O)N[C@H](C(=O)N[C@@H](CC(N)=O)C(=O)N[C@H](C(=O)NCC(=O)N[C@@H](CO)C(=O)NCC(=O)N[C@H](C(=O)N1CCC[C@H]1C(N)=O)[C@@H](C)O)[C@@H](C)O)[C@@H](C)O)[C@@H](C)O [Calcitonin]
t½ [2]: 0.967 h

Glucagon
t½ [2]: 0.25 h

CC[C@@H](C)[C@@H](NC(=O)[C@@H](C)NC(=O)[C@@H](CCC(=O)O)NC(=O)[C@H](NC(=O)[C@@H](CC(C)C)NC(=O)[C@@H](CCC(=O)O)NC(=O)CNC(=O)[C@@H](C)NC(=O)[C@@H](C)NC(=O)[C@@H](CC(C)C)NC(=O)[C@H](NC(=O)[C@@H](Cc1ccccc1)NC(=O)[C@@H](CC(C)C)NC(=O)[C@@H](CCC(=O)O)NC(=O)[C@@H](CC(C)C)NC(=O)[C@@H](Cc1ccccc1)NC(=O)[C@@H](C)NC(=O)[C@@H](CCCCN)NC(=O)CNC(=O)[C@H](N)CCCNC(=N)N)[C@H](C)CC)[C@H](C)CC)C(=O)N[C@H](CC(=O)O)C(=O)N[C@H](CCCNC(=N)N)C(=O)N[C@@H](C(=O)N[C@H](Cc1ccccc1)C(=O)N[C@@H](C(=O)NCC(=O)N[C@H](CCC(=O)O)C(=O)N[C@H](C)C(=O)N[C@H](Cc1c[nH]cn1)C(=O)O)[C@H](C)O)[C@H](C)O [(D)-GLP1] (H-[dR]G[dK][dA][dF][dL][dE][dL][dF][dI][dL][dA][dA]G[dE][dL][dI][dE][dA][dI][dD][dR][dT][dF][dT]G[dE][dA][dH]-OH; N-terminus and C-terminus assumed)
degradation by ProtK (in words) (Proteinase K (ProtK)): persists after 5 hours

Parathyroid Hormone
t½ [2]: 3 h

[dR]G[dK][dA][dF][dL][dE][dL][dF][dI][dL][dA][dA]G[dE][dL][dI][dE][dA][dI][dD][dR][dT][dF][dT]G[dE][dA][dH] (designed binder) [(D)-GLP1 peptide]
EC50, CRE-luciferase expression (GLP1 receptor (GLP1R)): 2200 nM | potency relative to the native peptide (GLP1 receptor (GLP1R)): ~40 fold lower
